The source of these data is patent publication US20240401070A1 (RUTGERS THE STATE UNIVERSITY OF NEW JERSEY, published 2024).

The assay has as its target T1, recombinant human coronavirus SARS-CoV-2 Spike Glycoprotein RBD, isolate Wuhan-Hu-1 (Abcam), with C-terminal … (SARS-CoV-2, isolate Wuhan-Hu-1, UniProt P0DTC2 319-541).
T1 construct: also called SARS-COV2 spike protein; COVID-19 spike protein
Kind of assay: ELISA, RBD coated, anti-c-Myc-HRP detection. Background: An ELISA detects its analyte on a solid surface through an enzyme-linked reagent.

B1: SARS-CoV-2 VHH-cMYC-12xHis-tag (VH ab8) expressed by E. coli WK6 cells from the pHENC6-VHH plasmid (VHH)
VHH: EVQLVESGGGLVQPGGSLRLSCAASGFTFDDYAMSWVRQAPGKGLEWIGRMYNNGRTSYNPSLKSLVTISRDNSKNTLYLQMNSLRAEDTATYYCARDNLGYRPSENLYGMDVWGQGTTVTVSS
notes: also called bacteria-derived VHH antibody; pHENC6-VHH-c-Myc-12xHis-tag
For B1, the binding result is “binds”.

B2: SARS-CoV-2 VHH-cMYC-12xHis-tag (VH ab8) expressed by EXPI293F mammalian cells from pCDNA 3.4 VHH (VHH)
VHH: EVQLVESGGGLVQPGGSLRLSCAASGFTFDDYAMSWVRQAPGKGLEWIGRMYNNGRTSYNPSLKSLVTISRDNSKNTLYLQMNSLRAEDTATYYCARDNLGYRPSENLYGMDVWGQGTTVTVSS
notes: also called VHH antibodies obtained in mammalian cells; pCDNA 3.4 VHH-c-Myc-12xHis-tag
As for B2, the binding result was “binds”.
